Results on two substances are retold here after PMC5449173.

Assay [1] has as its target RPTPσ (transfected in 293T/17 cells for native PAGE) (not stated (human or mouse cDNA cloned)). As to the kind of experiment: native gel or EMSA; lysates (NP-40 buffer) of RPTPσ-transfected 293T/17 cells in Coomassie blue sample buffer, native PAGE, western blot; cells untreated or treated with CSPG for 30 min. On the technique in general: Mobility shift assays separate free from complexed probe on a gel.

For assay [2], the target named is RPTPσ FC (full-length RPTPσ fused to FKBP-Cluc) (not stated (human or mouse cDNA cloned) | not stated). Description: split reporter (BiFC, NanoBiT); split firefly luciferase; 293T/17 cells co-transfected with RPTPσ FN/FC, 48 h, rapamycin for 4 hr against DMSO control.

In turn, “RPTPσ (transfected in 293T/17 cells for native PAGE) (receptor)” showed a stoichiometry N in assay [1] of 2.
The substance “RPTPσ FN (full-length RPTPσ fused to FRB-Nluc)” registered a fold increase of bioluminescence with rapamycin against control cells in assay [2] of 3 fold.

In general, stoichiometry N refers to a count of units in the complex or per binding partner.
